From patent US20150258192A1, “COMPOSITIONS AND METHODS FOR PREVENTING OR TREATING CHRONIC LUNG ALLOGRAFT DYSFUNCTION (CLAD) AND IDIOPATHIC PULMONARY FIBROSIS (IPF)” (priority 2014, published 2015)

Target: MAPKAP-K2(h) (human) (UniProt P49137)
Experiment: cell-based or functional assay

**Q.** For MMI-0100 ([…]; SEQ ID NO: 1) (peptide), which IC50 (radiometric kinase activity assay) is on record?
**A.** 22 µM
